The DeepSol protein solubility set

Test: soluble on expression in E. coli; label from the status in PepcDB or PDB records

## RILYRHSNAMQHEYNQMMQSIDERKQYQVGKIKMGTGDAWWPLFVKQALNEHLTKQPSASTHVEFGNHLGLMDSLINEQIEFFIGHEIVGLSSKCDVTFIPLFQTVDAYFVSSNHPLLGKTVTEEMLHEYPALSVTYDAKKFAHVIDNPIPKQNERERQQLDDRPTYEVDSLLASIDVLKESVAVMSYTRHLQSYLESFGLRCLTMENEPNPGTVGIYRHRRETSESHLDLIAGITQRAKLLN
  soluble on expression in E. coli: not soluble

## MGSDKIHHHHHHMRVIDGGVTAPKGFKANGYKEGKFGVAIIISEKDAVGAGTFTTNKVVAHPVVLSRELIKNRDKFRAIVANSGNANCFTKDGMEDAKEMQRLVAELFNINEDEVLVASTGVIGRKMDMNIIKDRINKVYNLIKEGNSSINAAKAIMTTDTKPKEIAVEFEVNGKTVRVGGIAKGAGMIAPNMLHATMLCFITTDIEIDKESLTNILQKVVDKTFNNISVDGDTSTNDTVFVLANGLSGVNYEECGEEFENALLYVCRELAKMIVKDGEGATKFMEVVVKGAKTEEDAVKASKAIVNSLLVKTAVFGGDPNWGRIVAAVGYSGADFNPEVVDVILSNYKDEVYLVKDGIPLADEGTEELKKAEEIMKSDEIKIVVDLKMGEFENVCYGCDLSYEYVRINAEYTT
  soluble on expression in E. coli: not soluble

## MGQGQSVILSFEDGARTVELARESVEAFVQNGQREQPGSMRDAFYNRTSAFVRLESTRGRGRLRGCAGAHGSIHELGNHDQQLGHAIVEAAIEAASEASCGSEVEDAELPNIRVSVCTVSNLVLTDDPIEDIELGVHGVAIDGDGQHGWMYPTLPVENDWSVFEYLDRTCRKANLPDGAWQDEDVMVTLFEGQVFRETGDEDDPVEELTALEHHHHHH
  soluble on expression in E. coli: not soluble

## MGSDKIHHHHHHMISVCIATYNGEKYLAEQLDSILLQVSEEDELIISDDGSTDHTLEILRTYAANYPQIQLLQGPGQGVIANFAFALTHTKGEVIFLADQDDVWLPNKVTTVTEYFETHPDIQVVISDLKIVDADLQVTNPSYFKFRKVKPGFWRNAIKSGYIGAGMAFRQEMKNVILPIPPEVPMHDMWIGLLAARKKQTGLIKEPLVLYRRHGANVSPIITKTSFQQKLNWRVNLLKALHQRLKEQR
  soluble on expression in E. coli: not soluble

## MSLTDVSRILKEARDQGRLTTLDYANLIFDDFMELHGDRHFSDDGAIVGGLAYLAGQPVTVIGIQKGKNLQDNLARNFGQPNPEGYRKALRLMKQAEKFGRPVVTFINTAGAYPGVGAEERGQGEAIAKNLMEMSDLKVPIIAIIIGEGGSGGALALAVADQVWMLENTMYAVLSPEGFASILWKDGSRATEAAELMKITAGELYKMGIVDRIIPEHGYFSSEIVDIIKANLIEQITSLQAKPLDQLLDERYQRFRKYEGHHHHHH
  soluble on expression in E. coli: not soluble

## MERCGWVSQDPLYIAYHDNEWGVPETDSKKLFEMICLEGQQAGLSWITVLKKRENYRACFHQFDPVKVAAMQEEDVERLVQDAGIIRHRGKIQAIIGNARAYLQMEQNGEPFVDFVWSFVNHQPQVTQATTLSEIPTSTSASDALSKALKKRGFKFVGTTICYSFMQACGLVNDHVVGCCCYPGNKPLEHHHHHH
  soluble on expression in E. coli: soluble

## MLKVEKFKKLKRFEVYYCLKNSFLEEVDIEMKYSCSITTIMSNGSASLLMNWEELTPGHCFTSYTTNPIAGDYGLNASAIDGHTEELVATHPAGTLENATQ
  soluble on expression in E. coli: not soluble

## MSERIASVERTTSETHISCTIDLDHIPGVTEQKINVSTGIGFLDHMFTALAKHGGMSLQLQCKGDLHIDDHHTAEDCALALGEAFKKALGERKGIKRYGYAYAPLDESLSRAVIDISSRPYFMCHLPFTREKVGDLSTEMVSHLLQSFAFAAGVTLHIDSIRGENNHHIAESAFKALALAIRMAISRTGGDDVPSTKGVLAL
  soluble on expression in E. coli: soluble

## MSLIMKVVVKVGSNLLVGSSGLRKSYIAELCREVARLKSQGHEISIITSGARAAGFTYLGKGKRTQDLHIKQALCAVGQVQLMKVYENAFDFYGIKIAQILLTRDTFSNRKRYLNLRNTLIGLSEFDVVPIVNENDTVATEEITLGDNDTLAAMFSIAWDADFLVLFTTVDGVIDENGKLVERFDESVKLKDMGKSSWGTGGIRSKIESALMASRCGVKATICSGNDVSNLTRFVKGEPVGTVFEPQGRLKAKKAWIAFLSEPAGKIYVNKGAEEALKSGNSLLPVGVTGVEGTFDVGDVVEIVNEEGELVGRGIVNYSSSDLEKIAGHKSSDLKKILGYEGNKVVVHIDNMWVAEGHHHHHH
  soluble on expression in E. coli: soluble

## MGSDKIHHHHHHMSRSIVEVYASWMPIDTPLLVGHLTFAETSRGGVFSFTYDKHFLASNYRLQIDPLLALHSGELYNDSADKNFRAFLDSSPDRWGRILMQRRAAIECRKGIRASAKLTELDYLLGVHDSYRMGGIRFKTAASLDFLDNNTEFSAPPMTSLRELEQAAMNIERDDNIDSDDYYRWLKMLISPGSSLGGARPKACVTDSEGHLWIAKFPNQNDTFDVGAWEMVCYQLALAAGIDMFPSEIRKFSTEHHTFLTKRFDRVGGKRIHFSSAMTQLQYYDGEQSDGASYLEIAEFLSNNGAQTKADLAQLWRRIVFNIAVSNTDDHLRNHGFLLSDKGWKLSPAYDLNPIVGKHGLHLNITDTANELDYALAFEVIDFFRLSREDATRIYDDVMGAVKGWQTVASRLGISRNEQLTKQEAFNV
  soluble on expression in E. coli: not soluble

## MSGSYDEASEEITDSFWEVGNYKRTVKRIDDGHRLCNDLMSCVQERAKIEKAYAQQLTDWAKRWRQLIEKGPQYGSLERAWGAMMTEADKVSELHQEVKNSLLNEDLEKVKNWQKDAYHKQIMGGFKETKEAEDGFRKAQKPWAKKMKELEAAKKAYHLACKEERLAMTREMNSKTEQSVTPEQQKKLVDKVDKCRQDVQKTQEKYEKVLEDVGKTTPQYMEGMEQVFEQCQQFEEKRLVFLKEVLLDIKRHLNLAENSSYMHVYRELEQAIRGADAQEDLRWFRSTSGPGMPMNWPQFEEWNPDLPHTTAKKEKQPKKAEGATLSNATGAVESTSQAGDRGSVSSYDRGQTYATEWSDDESGNPFGGNEANGGANPFEDDAKGVRVRALYDYDGQEQDELSFKAGDELTKLGEEDEQGWCRGRLDSGQLGLYPANYVEAI
  soluble on expression in E. coli: soluble

## MDASSGAAADPAEGSAPEGAASGGTGAPNGTDPLDAPNDLGNVPGESAGAGAGAASSGASRSAIMAVTAGGSQGPAVSWGEAADSRSSTWETEGRAAGSLARQAVTRSCSGCGRAGRSGSAEVMRCTTVASESPSKGPRPQAAKTSTEPRENTSLGGPRSVAPRACSGDMKPGVPITEPAAVSAVASTARAMPKSMIRGPSAARITLPGFRSRCTSPQEWMAARPSASPAPSRSTVCSGSGPCASTASCSDGPGT
  soluble on expression in E. coli: not soluble

## MSLAVLGDVARLADVSTATVSRVYNEPDKVSPSVRERVLQAAAALNWIPNAAGRALASTRTHIAGAIIPTLDDQVFASQVAGMQAVFAERGITLFLGCSNYDPAQALIQVRAMLARGVEVIAIVGEAHPPELFDALKQARVPYAITYAYREGSPHHCIGFDNRAAFVAIAEHLLALGHRTFAAVIQPARDNDRVQARVAGIREALERHGIAVRPSHLHEGPATIAFGRQSLRAIWQGADERPTAIICGNDQLAIGVLLEAAELGIKVPQQLSVTGFDDVAIAQQIHPSLTTVRVDTAEIGRRAARYLLDVLDGKEAAESGLVQPELMVRESTAEGHHHHHH
  soluble on expression in E. coli: soluble

## MKQESASQSTPPPSLSPAPSSAQPFWGDGDPQALWIFGYGSLVWKPDFAYSDSRVGFVRGYSRRFWQGDTFHRGSDKMPGRVVTLLEDHEGCTWGVAYQVRGEQVNEALKYLNVREAVLGGYDTKEVTFYPQDTPDQPLTALAYVATPQNPGYLGPAPEEVIATQILACRGFSGHNLEYLLRLADFMQLCGPQAQDEHLEAIVDAVGTLLPCSYLPEQPLALT
  soluble on expression in E. coli: soluble

## MAHHHHHHMVENEVYNRDMRIVRSRERLDGRPTLRSFFNKDGLLLKTYGWIVRNAVGLIVLIHGLNSHTRFSFLRHNVHVFNNRAILMDADNYYIYKNSWIEHFNKNGYSVFGIDLQSHGESEGWENLSLNVKEFDDLVYDVLEYIQKVQDDNARYMNYSSSSYSSSSSRSNSSSNSSSNSGSNSNSNSNSNSRGGESPRNDNSANRMIAPLPVYLIGQSMGGNVALRALQIVGKYRGLNRRLNIRGCVSLSGMIAVEALGLPSSYIYKSFFMPLSRFLSDFLPTLRLLCEMPYKRFQYIRDIGRFDTMRYRRGITCRFAYELLKAMDNLDHDMRFMPRDIPVLFIHSSKDKLCYPGGVVSFYNRLNIRNKELHMLNYMEHMLTMEPGNERVLSKIMNWLYNMSRPQRITA
  soluble on expression in E. coli: not soluble

## MAHHHHHHMTNVVECTFKTPPETAKAPDNAIIWNSFQYCDEKGWYSLTNHDEIMLRPTAFSDGRIKFLPQLEKIPEEFESVLCGKYDAKAWGKDDCNIVIEGDKDVHISLPGLQEKINYNHRERFPTFLKNWKIIVGMLNEHITVIRINTETAIIVSINEKSNVTVKCVNFNNGFLCVNPHTNLAIAYGDFALSELKKCELVPNITHEGAEWGFFVHLFKWGHIIIPKDIEIKLPSPGLKLIGKKIDTVAIISLPPNIYIHVKIDGPKCIRKLEYGQDYSITAIKSSESDIDIYLLFDGQLIKYEFSFDTRLNKVGKGRSINYAKLKCTNKSKEVTSFVFQATANSKLLLDSNCPTDNMGHLLCNQTISVFDAETGEYLSHPQGLQLTEVFNTLSYPPEKE
  soluble on expression in E. coli: not soluble

## GLMALLMVFAVSIGGLTQIVPLFFQDVTNKPVEGMKPYTALQLEGRDVYIREGCVGCHSQMIRPFRAETERYGHYSVAGESVWDHPFLWGSKRTGPDLARVGGRYSDDWHRAHLYNPRNVVPESKMPSYPWLVAQPVDNSHTDVKMRTLRTLGVPYTDDDIAGAREAVKGKTEMDALVAYLQVLGT
  soluble on expression in E. coli: not soluble

## MIIVHHLNNSRSQRILWLLEELGLPYEIKRYQRDPKTNLAPPELKAIHPLGKSPVIEDGPHVVIESGAIVDYLIRRHGDGRLQPDPASATYDEYVQWLHFAEGSAILPLMLNLYVGRLGDAGAPLHPRIHSELANYLGYLNEALGLTPYLLGDELSGADIQMSFIGEFAKMQGMLQPHPNLAAWVQRCQERPAYRQALEQGGEYSFAK
  soluble on expression in E. coli: not soluble

## GFVGRFGASSATTDRSKIFTADFRDFETSFSFQPGVFWGYDDFLSSALLLDIGYNKDKYELKYTVNGGRLLENYDFNSISFGLFPRLNISFVSIGVGGGIKIPLSLKYSKEGDAYSYNKYSLDFGDIKDSFETFYIPYVKVSLDFLIKTKGKFMMSLGVYANYDFPININRNGLLKDISIDKESIAAFDIGFQIGAYLVNR
  soluble on expression in E. coli: not soluble

## MSLKMRNNVFVFDSPYCLLIYCILFNHQLHDTIYIYSDNVSLRDINFPGKERYIIKKGNNKTSKIFYYFCFLFRLIINPKLRKLISNRKDYRFLGQDHLFFSKPFLNEFILLEDGLANYRYPHYSRLYKLIIGGHTFGRSTKVNKILLSGMIDIIDPTINDKVEFFDLIAAWEKLNSVQKKEINHIFNYCIEDELVADVMILTQPLSEDGFISENEKIRLYDEIIKEYDDKKIVIRQHPRELTDYSLYFKDVKVNKVKAPVELVVLNSPMIKTAVTLFSGGIFNIPCREKIFKGTSFSPLLSKHFGNISNKFEVKGKKEGHHHHHH
  soluble on expression in E. coli: soluble

## MNKRDYMNTSVQEPPLDYSFRSIHVIQDLVNEEPRTGLRPLKRSKSGKSLTQSLWLNNNVLNDLRDFNQVASQLLEHPENLAWIDLSFNDLTSIDPVLTTFFNLSVLYLHGNSIQRLGEVNKLAVLPRLRSLTLHGNPMEEEKGYRQYVLCTLSRITTFDFSGVTKADRTTAEVWKRMNIKPKKAWTKQNTL
  soluble on expression in E. coli: soluble

## MSLGVEENPKLPKSVQRHLEPDERVLFAIKKKISIEKPKWLLVTDRRIIYLDEKVLGRYDFKAIPYQKLEQVVVKLGIMSSEFIIEGEENITLKLGWMDKEEARKAINAIKDALNAIAVEPVSIDVNKGLTSETWVLKKPREFVTRTMPAYQPAQVREEKEDPLEKLKKLKELYDMGVISQEEYEEKRKKLLEEIEGHHHHHH
  soluble on expression in E. coli: soluble
